US20240026036A1

Biological target: Recombinant human TNFα (R&D Systems) (human) (UniProt P01375)
Sequence (P01375 77-233 limits assumed): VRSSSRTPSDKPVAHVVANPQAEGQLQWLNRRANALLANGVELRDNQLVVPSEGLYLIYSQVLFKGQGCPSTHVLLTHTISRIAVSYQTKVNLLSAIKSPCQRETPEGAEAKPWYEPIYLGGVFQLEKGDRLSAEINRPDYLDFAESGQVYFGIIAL

IC50, inhibition of TNFα-induced Caspase 3 activity in U937 cells: 0.144 nM
Substance: etanercept (Fc fusion)
